Results on one substance are retold here after PMC8201785.

One assay deals with PR34 HA. Nature of the assay: BLI. (In BLI a coated tip is dipped into the sample, and binding shifts an interference pattern.)
For another assay, the target named is CA09 HA. Nature of the assay: BLI.

What is called Kd is the equilibrium constant for the complex coming apart. High values mean a looser complex, low ones a tighter complex. In general, koff refers to the rate constant with which the complex falls apart. Higher therefore signals fast dissociation. As to MEDI8852, the figures for the Kd in the assay with PR34 HA and with CA09 HA were 1.36 nM and 0.502 nM, respectively. Besides, the off-rate (koff) worked out at 0.00023 s⁻¹ with PR34 HA and 0.000147 s⁻¹ with CA09 HA.
